From patent publication US20240034813A1 (Janssen / Centocor, published 2024)

Tests used:
[1] = target: T1, recombinant cMet/HGFR with c-terminal His-tag, Cy5-labeled (UniProt P08581 25-932, limits assumed, Cy5 label (reacted with Cy5 Mono NHS Ester; sites not stated)); test: competitive TR-FRET (Eu-amivantamab/Cy5-c-MET), EC50 ratio vs Reference Material; Ex. 12 drug product with rHuPH20, 6 months at 25 C
T1 construct: Commercial protein; also called Cy5-c-MET; Cy5-labeled c-MET antigen; not shown: C-terminal His-tag
Excerpt: (§1) In this procedure, varying concentrations of unlabeled bispecific EGFR-cMet antibody sample compete with donor fluorophore (Europium (Eu) chelate) labeled bispecific EGFR-cMet antibody for binding to an acceptor fluorophore (Cy5)-labeled c-MET antigen. Excitation of the donor fluorophore results in a transfer of energy to the bound acceptor fluorophore (FRET process). The resultant FRET is detected by emission of light at 665 nm using a microplate reader capable of measuring time-resolved fluorescence. Sample dose response curves are compared to the Reference Material (RM).
(§2) c-MET Binding Materials and Methods. Certified commercial cMet, a recombinant cMet/HGFR with c-terminal His-tag is reacted with certified commercial Cy5 Mono NHS Ester to produce Cy5-labeled c-MET. Validated bispecific EGFR-cMet antibody is reacted with certified commercial Europium (Eu) chelate to produce Eu labeled bispecific EGFR-cMet antibody. […] Fluorescence is then measured by spectrophotometry at 665 nm, plotted against antibody concentration and analyzed by a four-parameter logistic model. The antibody concentration required to obtain half of the maximum fluorescence response (EC50) is determined for RM, assay control and samples. The potencies of assay control and samples are calculated based on the ratio of the sample (or control) and RM EC50 values and reported as a percentage activity relative to the RM.

[2] = target: T2, recombinant human EGFR/ErbB1/HER1 with C-terminal His tag, Cy5-labeled (human, UniProt P00533 25-645, Cy5 label (reacted with Cy5 Mono NHS Ester; sites not stated)); test: competitive TR-FRET (Eu-amivantamab/Cy5-EGFR), EC50 ratio vs Reference Material; Ex. 11 drug product, 3 months at 40 C
T2 construct: Commercial protein; also called Cy5-EGFR; Cy5-labeled EGFR antigen; not shown: C-terminal His tag
Excerpt: as §1, with “EGFR” for “c-MET”, “RM.” for “Reference Material (RM).”
as §2, with “EGFR” for “c-MET”, “EGFR,” for “cMet,”, “human EGFR/ErbB1/HER1” for “cMet/HGFR”, “C-terminal His tag” for “c-terminal His-tag”, “EGFR.” for “c-MET.”, “Eu-labeled” for “Eu labeled”

[3] = target: T1, recombinant cMet/HGFR with c-terminal …; test: competitive TR-FRET (Eu-amivantamab/Cy5-c-MET), EC50 ratio vs Reference Material; Ex. 11 drug product, 1 month at 40 C
Excerpt: as §1, §2

[4] = target: T2, recombinant human EGFR/ErbB1/HER1 with …; test: competitive TR-FRET (Eu-amivantamab/Cy5-EGFR), EC50 ratio vs Reference Material; Ex. 2 Formulation 1 (10 mM histidine), 3 months at 40 C
Excerpt: as §1, with “EGFR” for “c-MET”, “RM.” for “Reference Material (RM).”
as §2, with “EGFR” for “c-MET”, “EGFR,” for “cMet,”, “human EGFR/ErbB1/HER1” for “cMet/HGFR”, “C-terminal His tag” for “c-terminal His-tag”, “EGFR.” for “c-MET.”, “Eu-labeled” for “Eu labeled”

[5] = target: T1, recombinant cMet/HGFR with c-terminal …; test: competitive TR-FRET (Eu-amivantamab/Cy5-c-MET), EC50 ratio vs Reference Material; Ex. 2 Formulation 2 (50 mM histidine), T0, 40 C table
Excerpt: as §1, §2

[6] = target: T2, recombinant human EGFR/ErbB1/HER1 with …; test: competitive TR-FRET (Eu-amivantamab/Cy5-EGFR), EC50 ratio vs Reference Material; Ex. 11 drug product, 0 months, 40 C table
Excerpt: as §1, with “EGFR” for “c-MET”, “RM.” for “Reference Material (RM).”
as §2, with “EGFR” for “c-MET”, “EGFR,” for “cMet,”, “human EGFR/ErbB1/HER1” for “cMet/HGFR”, “C-terminal His tag” for “c-terminal His-tag”, “EGFR.” for “c-MET.”, “Eu-labeled” for “Eu labeled”

[7] = target: T1, recombinant cMet/HGFR with c-terminal …; test: competitive TR-FRET (Eu-amivantamab/Cy5-c-MET), EC50 ratio vs Reference Material; Ex. 2 Formulation 1 (10 mM histidine), 3 months at 25 C
Excerpt: as §1, §2

[8] = target: T2, recombinant human EGFR/ErbB1/HER1 with …; test: competitive TR-FRET (Eu-amivantamab/Cy5-EGFR), EC50 ratio vs Reference Material; Ex. 2 Formulation 3 (acetate), T0, 25 C table
Excerpt: as §1, with “EGFR” for “c-MET”, “RM.” for “Reference Material (RM).”
as §2, with “EGFR” for “c-MET”, “EGFR,” for “cMet,”, “human EGFR/ErbB1/HER1” for “cMet/HGFR”, “C-terminal His tag” for “c-terminal His-tag”, “EGFR.” for “c-MET.”, “Eu-labeled” for “Eu labeled”

B1: amivantamab (bispecific antibody, human IgG1, kappa)
heavy 1: not shown
light 1: not shown
heavy 2: not shown
light 2: DIQMTQSPSSVSASVGDRVTITCRASQGISNWLAWFQHKPGKAPKLLIYAASSLLSGVPSRFSGSGSGTDFTLTISSLQPEDFATYYCQQANSFPITFGQGTRLEIKRTVAAPSVFIFPPSDEQLKSGTASVVCLLNNFYPREAKVQWKVDNALQSGNSQESVTEQDSKDSTYSLSSTLTLSKADYEKHKVYACEVTHQGLSSPVTKSFNRGEC
notes: The samples tested were high concentration (160 mg/mL) formulations, fresh or stored or stressed; also called JNJ-61186372; bispecific EGFR-cMet antibody
For B1, the “cMET Binding activity relative to Reference Material (%)” value [1] was 103%, the “EGFR Binding activity relative to Reference Material (%)” value [2] was 8% and the “cMET Binding activity relative to Reference Material (%)” value [3] was 84%. For the same binder, the “EGFR Binding % activity relative to RM” value [4] was 41%, the “cMET Binding % activity relative to RM” value [5] was 102% and the “EGFR Binding activity relative to Reference Material (%)” value [6] was 89%. For the same binder, the “cMET Binding % activity relative to RM” value [7] was 94% and the “EGFR Binding % activity relative to RM” value [8] was 103%.
